According to patent US20260132200A1:
pEC50: −log10 of the molar value. Read-outs that look alike come from different tables or passages of the source.

Assays:
[1] = biological target: cynomolgus monkey CD3 on monkey T cells (CD2+CD4+ cells of cynomolgus PBMCs) (cynomolgus monkey) (UniProt Q95LI5); assay: FACS on monkey PBMCs, CD2+CD4+ T cells
[2] = biological target: cynomolgus monkey CD3 on monkey T cells (CD2+CD4+ cells of cynomolgus PBMCs) (cynomolgus monkey) (UniProt Q95LI5); assay: FACS on cynomolgus PBMCs, CD2+CD4+ T cells
[3] = biological target: human CD20 expressed on Raji cells (CD3-, CD20+ human B-cell line) (human) (UniProt P11836); assay: cell-based or functional assay
[4] = biological target: human CD3 expressed on cells (Jurkat, a CD3+ human T-cell line; human T cells) (human) (UniProt P07766); assay: cell-based or functional assay
[5] = biological target: human CD3 expressed on cells (Jurkat, a CD3+ human T-cell line; human T cells) (human) (UniProt P07766); assay: cell-based or functional assay; remark: listed apart in the source

Sequence of human CD20 expressed on Raji cells (CD3-, CD20+ human B-cell line) (human) (P11836 whole entry): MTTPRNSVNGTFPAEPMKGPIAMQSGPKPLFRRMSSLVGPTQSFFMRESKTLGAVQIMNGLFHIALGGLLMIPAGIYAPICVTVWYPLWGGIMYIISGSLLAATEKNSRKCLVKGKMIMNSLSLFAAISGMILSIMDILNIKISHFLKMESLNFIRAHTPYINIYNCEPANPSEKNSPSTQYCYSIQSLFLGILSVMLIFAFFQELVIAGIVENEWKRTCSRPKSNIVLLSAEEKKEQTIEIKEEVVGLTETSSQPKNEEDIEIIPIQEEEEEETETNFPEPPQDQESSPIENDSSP
Sequence of cynomolgus monkey CD3 on monkey T cells (CD2+CD4+ cells of cynomolgus PBMCs) (cynomolgus monkey) (Q95LI5 22-198): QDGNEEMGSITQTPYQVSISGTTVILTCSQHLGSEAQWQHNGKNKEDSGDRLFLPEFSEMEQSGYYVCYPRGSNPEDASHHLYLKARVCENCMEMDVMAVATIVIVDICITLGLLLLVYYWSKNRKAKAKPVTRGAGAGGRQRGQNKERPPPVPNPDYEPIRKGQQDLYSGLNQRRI

## SP34, mouse monoclonal antibody reactive against the epsilon chain of the T3 complex on human T lymphocyte cells
[1]
  pEC50: 10.15
[2]
  pEC50: 10.15

## Control III: anti-CD20 therapeutic antibody with heavy and light chain sequences of Rituxan (Rituximab)
[3]
  CDC EC50, Raji: 0.0966 nM
  CDC EC50, Raji SCID1: 85.6 nM
  CDC EC50, Raji SCID2: 0.0587 nM
  CDC EC50, Raji SCID3: 25.5 nM
  CDC EC50, Raji SCID4: 5.29 nM

## OKT-3, mouse monoclonal antibody against human T-cell surface antigens (ATCC CRL-8001)
[4]
  U937 Cytotoxicity Human T-cells [M] (EC50): 2.35e-12 M
[5]
  U937 Cytotoxicity Human T-cells [M] (EC50): 3.04e-12 M
